Here are results for one molecule from patent US20090081238A1 (Genentech, published 2009).

The Kd is the free concentration of one partner at which half of the binding sites on the other are occupied at equilibrium, for simple one-to-one binding. Higher therefore signals weaker binding. The term koff denotes the first-order rate constant of dissociation. Read a low koff as slow dissociation. By kon is commonly meant the second-order rate constant of association. High values mean fast association, low ones slow association. As a reminder, the EC50 (read off the curve) is the concentration giving half of the maximal effect.

For experiment [1], the target named is human Notch1 (on NIH-3T3 cells) (human, UniProt P46531 19-2555). Kind of experiment: cell-based or functional assay.
A further experiment has as its target T1, human Notch2 NRR (human, UniProt Q04721 1425-1677).
T1 construct: domain: NRR; Construct not described; also called human NRR2
T1 sequence (looked up): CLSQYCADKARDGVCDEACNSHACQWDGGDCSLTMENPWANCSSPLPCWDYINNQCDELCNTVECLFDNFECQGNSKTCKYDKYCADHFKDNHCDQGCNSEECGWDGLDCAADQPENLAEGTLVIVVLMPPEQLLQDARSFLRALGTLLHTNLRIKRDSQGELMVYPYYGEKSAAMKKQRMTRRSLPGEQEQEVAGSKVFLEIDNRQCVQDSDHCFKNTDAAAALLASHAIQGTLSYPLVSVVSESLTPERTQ
In words: cross-reactivity test of the IgG (method not detailed).

The next experiment deals with T2, murine Notch2 NRR (mouse, UniProt O35516 1425-1679).
T2 construct: domain: NRR; Construct not described; also called mouse NRR2
T2 sequence (looked up): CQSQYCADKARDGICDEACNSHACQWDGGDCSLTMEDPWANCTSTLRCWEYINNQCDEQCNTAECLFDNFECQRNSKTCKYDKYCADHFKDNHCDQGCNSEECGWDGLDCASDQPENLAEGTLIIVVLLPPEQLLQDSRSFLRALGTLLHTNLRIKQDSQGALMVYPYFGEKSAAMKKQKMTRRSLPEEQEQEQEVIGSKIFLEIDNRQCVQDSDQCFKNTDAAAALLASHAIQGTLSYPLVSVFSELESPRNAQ
Described as above.

The target in the next experiment is T3, human Notch3 NRR (human, UniProt Q9UM47 1378-1643, limits assumed).
T3 construct: domain: NRR; Construct not described; also called human NRR3
T3 sequence (Q9UM47 1378-1643 limits assumed): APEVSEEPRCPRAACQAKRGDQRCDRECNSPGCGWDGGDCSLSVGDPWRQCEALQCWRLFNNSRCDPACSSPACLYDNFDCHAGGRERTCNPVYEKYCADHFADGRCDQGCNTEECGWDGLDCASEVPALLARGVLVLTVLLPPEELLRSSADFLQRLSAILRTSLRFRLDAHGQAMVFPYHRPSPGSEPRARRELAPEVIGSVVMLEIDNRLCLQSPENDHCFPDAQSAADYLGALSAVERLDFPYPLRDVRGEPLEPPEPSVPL
The experiment is described as above.

The target of another experiment is T4, murine Notch3 NRR (mouse, UniProt Q61982 1379-1643, limits assumed).
T4 construct: domain: NRR; Construct not described; also called mouse NRR3
T4 sequence (Q61982 1379-1643 limits assumed): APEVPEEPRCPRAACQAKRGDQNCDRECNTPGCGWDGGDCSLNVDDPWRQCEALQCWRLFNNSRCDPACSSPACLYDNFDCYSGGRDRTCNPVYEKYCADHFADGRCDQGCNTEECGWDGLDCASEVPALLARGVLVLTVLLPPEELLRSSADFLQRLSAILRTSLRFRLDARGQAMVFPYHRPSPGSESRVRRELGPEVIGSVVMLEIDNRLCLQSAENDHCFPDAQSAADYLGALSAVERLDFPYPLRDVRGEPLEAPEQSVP
Described as above.

The next experiment concerns the target T5, human Notch4 NRR (human, UniProt Q99466 1172-1447, limits assumed).
T5 construct: domain: NRR; Construct not described; also called human NRR4
T5 sequence (looked up): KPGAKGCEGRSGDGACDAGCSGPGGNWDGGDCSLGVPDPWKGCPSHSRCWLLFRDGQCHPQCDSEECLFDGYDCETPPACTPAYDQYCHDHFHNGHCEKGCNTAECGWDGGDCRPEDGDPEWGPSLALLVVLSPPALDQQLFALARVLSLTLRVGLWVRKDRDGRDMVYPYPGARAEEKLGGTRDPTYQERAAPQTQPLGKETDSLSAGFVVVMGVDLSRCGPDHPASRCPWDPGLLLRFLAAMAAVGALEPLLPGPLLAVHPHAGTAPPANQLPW
The experiment is described as above.

Another experiment concerns the target T6, murine Notch4 NRR (mouse, UniProt P31695 1168-1443, limits assumed).
T6 construct: domain: NRR; Construct not described; also called mouse NRR4
T6 sequence (looked up): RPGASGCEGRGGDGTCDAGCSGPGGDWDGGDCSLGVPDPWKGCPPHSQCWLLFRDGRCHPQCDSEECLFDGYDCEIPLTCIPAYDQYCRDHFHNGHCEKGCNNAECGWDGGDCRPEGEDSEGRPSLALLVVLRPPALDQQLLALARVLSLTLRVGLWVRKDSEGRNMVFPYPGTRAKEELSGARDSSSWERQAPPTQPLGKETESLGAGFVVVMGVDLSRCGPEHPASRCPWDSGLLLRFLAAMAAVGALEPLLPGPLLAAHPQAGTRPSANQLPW
Described as above.

For experiment [2], the target named is T7, hFLAG-EGF34+NRR-His6 (101V), the human Notch1 NRR immunogen (Notch1 V1307-Q1733) (human, UniProt P46531 1307-1733).
T7 construct: also called hNotch1 NRR; human NRR1
In words: SPR (BIAcore-3000), IgG captured by anti-human IgG, NRR1-ECD injected 3.9-500 nM, 25 C. The protocol: (§1) To further characterize the binding affinity and binding kinetics of the anti-Notch1 NRR Mabs, surface plasmon resonance (SRP) measurement with a BIAcore™-3000 was used (BIAcore, Inc., Piscataway, N.J.). Briefly, carboxymethylated dextran biosensor chips (CM5, BIAcore Inc.) were activated with N-ethyl-N′-(3-dimethylaminopropyl)-carbodiimide hydrochloride (EDC) and N-hydroxysuccinimide (NHS) according to the supplier's instructions. Rabbit anti human antibody (Pierce) was diluted with 100 mM sodium acetate, pH 4.8, into 20 μg/ml before injection at a flow rate of 5 μl/minute to achieve approximately 3000 response units (RU) of coupled antibody. Next, 1M ethanolamine was injected to block unreacted groups. Anti-NRR1 mab (formatted as a full-length IgG) was captured by rabbit anti-human IgG coated on the chips to achieve approximately 200 response units (RU). For kinetics measurements, two-fold serial dilutions of human NRR1-ECD or murine NRR1-ECD proteins (3.9 nM to 500 nM) were injected in PBT buffer (PBS with 0.05% Tween 20) at 25° C. with a flow rate of 30 μl/min. Association rates (kₒₙ) and dissociation rates (koff) were calculated using a simple one-to-one Langmuir binding model (BIAcore Evaluation Software version 3.2). The equilibrium dissociation constant (KD) was calculated as the ratio koff/kₒₙ.

Experiment [3] addresses T8, mFLAG-EGF34+NRR-His6, the mouse Notch1 NRR immunogen (Notch1 V1307-Q1723) (mouse, UniProt Q01705 1307-1723).
T8 construct: the rest carries an N-terminal FLAG tag and a C-terminal His tag; also called mNotch1 NRR; murine NRR1
The description is as above. Here is the method:
as §1

The target in experiment [4] is mEGF34+NRR-L1597H-FLAG-TEV-Fc (mouse) (UniProt Q01705). In words: ELISA, target coated on the plate at 1 ug/ml, IgG titrated in 3-fold steps, detected with peroxidase anti-human Fab; A630. (In general: In an ELISA, binding on a coated surface is turned into a signal by an enzyme label.)
mEGF34+NRR-L1597H-FLAG-TEV-Fc (mouse), sequence (Q01705 1307-1723, stated change not applied): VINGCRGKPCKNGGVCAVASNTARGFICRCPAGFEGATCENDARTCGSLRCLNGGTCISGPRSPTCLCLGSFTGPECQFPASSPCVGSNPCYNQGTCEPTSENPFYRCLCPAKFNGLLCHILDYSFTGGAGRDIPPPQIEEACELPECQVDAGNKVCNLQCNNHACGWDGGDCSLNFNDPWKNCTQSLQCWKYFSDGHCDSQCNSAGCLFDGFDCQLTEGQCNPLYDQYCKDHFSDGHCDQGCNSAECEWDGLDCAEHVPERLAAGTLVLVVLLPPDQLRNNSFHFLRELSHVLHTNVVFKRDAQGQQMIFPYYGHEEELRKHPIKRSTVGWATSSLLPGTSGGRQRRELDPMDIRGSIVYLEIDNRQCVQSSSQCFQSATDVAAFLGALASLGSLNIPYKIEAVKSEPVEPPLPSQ
Experiment [5] has as its target T7, hFLAG-EGF34+NRR-His6 (101V), the human …. Described as above. The protocol: (§2) 1 μg/ml of proteins in PBS, pH 7.4, were coated on ELISA plates (Nunc Maxisorp) at 4° C. overnight. Plates were blocked with Casein blocker in PBS (phosphate buffered saline; Pierce) for one hour at room temperature. Serial 3-fold dilutions of anti Notch1 NRR IgGs or irrelevant IgG in PBST buffer (PBT buffer (PBS+0.05% (v/v) Tween 20) with 0.5% (w/v) BSA) were added to the plates and incubated for one hour at room temperature. The plates were then washed with PBST and bound antibodies were detected with peroxidase-conjugated goat anti human Fab specific IgG (Sigma). TMB substrate (3,3′,5,5′-etramethylbenzidine) was used and absorbance at 650 nm was read using a standard ELISA plate reader. Absorbance was plotted against concentrations of IgGs using KaleidaGraph (Synergy Software).

In experiment [6] the target is T8, mFLAG-EGF34+NRR-His6, the mouse Notch1 …. The description is as above. Here is the method:
as §2

The target of another experiment is T9, hFLAG-NRR-His6 (102V) (human, UniProt P46531 1447-1733).
T9 construct: no EGF-like repeats; not shown: FLAG tag; thrombin cleavage site and HIS tag
The experiment is described as above. Here is the method: as §2

T8 sequence (Q01705 other isoform, or with tags, fused parts or gaps): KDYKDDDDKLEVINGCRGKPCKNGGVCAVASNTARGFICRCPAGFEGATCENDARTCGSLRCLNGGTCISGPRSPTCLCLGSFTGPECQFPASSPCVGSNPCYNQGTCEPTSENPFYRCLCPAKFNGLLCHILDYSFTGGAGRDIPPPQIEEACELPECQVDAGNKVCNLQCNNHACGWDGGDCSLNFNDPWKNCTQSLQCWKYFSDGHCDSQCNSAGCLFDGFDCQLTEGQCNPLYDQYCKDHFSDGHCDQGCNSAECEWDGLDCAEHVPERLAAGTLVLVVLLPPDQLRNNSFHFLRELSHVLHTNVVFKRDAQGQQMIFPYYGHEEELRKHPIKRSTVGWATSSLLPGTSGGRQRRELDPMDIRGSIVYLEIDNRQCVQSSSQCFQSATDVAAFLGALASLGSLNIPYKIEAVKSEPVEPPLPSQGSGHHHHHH

B1: Antibody A (antibody, V domains shown)
VH: EVQLVESGGGLVQPGGSLRLSCAASGFTFSSYWIHWVRQAPGKGLEWVARINPSNGSTNYADSVKGRFTISADTSKNTAYLQMNSLRAEDTAVYYCARGSGFRWVMDYWGQGTLVTVSS
VL: DIQMTQSPSSLSASVGDRVTITCRASQDVSTAVAWYQQKPDGTVKLLIYSASFLYSGVPSRFSGSGSGTDFTLTISSLQPEDFATYYCQQSYTTPPTFGQGTKVEIKR
notes: Tested as full-length human IgG1 (hIgG1) made in CHO cells; also called anti-Notch1 NRR Antibody A; Antibody A-hIgG1
For the molecule B1, the “Co-culture blocking, IC50” value in experiment [1] was approximately 0.1 µg/mL. Further, the binding result with human Notch2 NRR, with murine Notch2 NRR, with human Notch3 NRR, in the experiment with murine Notch3 NRR, with human Notch4 NRR and with murine Notch4 NRR was “no binding” in each case. The Kd in experiment [2] was determined as 134 nM; in experiment [3] it was 231 nM. For the same molecule, the off-rate constant (koff) in experiment [2] was 0.011 s⁻¹; in experiment [3], 0.021 s⁻¹. Further, the kon in experiment [2] was determined as 82000 M⁻¹ s⁻¹; in experiment [3], 91000 M⁻¹ s⁻¹. Also, the EC50 (read off the curve) was 0.04 µg/mL in [4], approximately 0.07 µg/mL in experiment [5], approximately 0.05 µg/mL in experiment [6] and approximately 0.07 µg/mL in the experiment with hFLAG-NRR-His6 (102V).
